{"source": "patent US6600012", "target": "HLA.A2 on T2 mutant cells", "test": "T2 cell HLA.A2 upregulation assay, flow cytometry with MA2.1", "data": [{"binder": "SAPDTRPAP (modifications not checked)", "note": "[…, MUC-1 tandem repeat synthetic 9 mer]", "values": [{"measurement": "% Change in mean channel intensity", "result": 48, "unit": "%"}]}]}
